B1: RHOBTB3 (parent)
chain: VSHVFMLLFNVKSPTDIQDSSIIR
B2: KLHDC10 (parent)
chain: PSLLELAWEKLLAAFPNLANLSRT

Variants of: B1
Assay: protein stability index of a GFP-peptide fusion (GPS, HEK-293T) (PSI 1-6); higher = more stable
Settings: c terminus: a fixed tail appended
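Also: lentivirally expressed fusions sorted by FACS into six bins by GFP to DsRed ratio, PSI derived from sequencing read proportions per bin multiplied by bin number.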

VSHVFMLLFNVKSPTDIQDSSIIN and VSHVFMLLFNVKSPTDIQDSSIIH are the same in protein stability index: 3.13 for the first, 3.13 for the second.

Going from VSHVFMLLFNVKSPTDIQDSSIIQ to VSHVFMLLFNVKSPTDIQDSSIIE, the protein stability index falls from 4.67 to 2.74.

Going from VSHVFMLLFNVKSPTDIQDSSIIW to VSHVFMLLFNVKSPTDIQDSSIIF, the protein stability index falls from 4.43 to 1.82.

Going from VSHVFMLLFNVKSPTDIQDSSIIT to VSHVFMLLFNVKSPTDIQDSSIIL, the protein stability index falls from 3.31 to 2.66.

Going from VSHVFMLLFNVKSPTDIQDSSIIY to VSHVFMLLFNVKSPTDIQDSSIIG, the protein stability index rises from 2.58 to 3.07.

Compared with VSHVFMLLFNVKSPTDIQDSSIIV, VSHVFMLLFNVKSPTDIQDSSIIK is lower in protein stability index: 3.67 for the first, 3.56 for the second.

Compared with VSHVFMLLFNVKSPTDIQDSSIIS, VSHVFMLLFNVKSPTDIQDSSIGR is lower in protein stability index: 3.05 for the first, 2.5 for the second.

Going from VSHVFMLLFNVKSPTDIQDSSIRR to VSHVFMLLFNVKSPTDIQDSSISR, the protein stability index falls from 2.85 to 2.33.

Compared with VSHVFMLLFNVKSPTDIQDSSILR, VSHVFMLLFNVKSPTDIQDSSIVR is lower in protein stability index: 5.03 for the first, 2.75 for the second.

First: VSHVFMLLFNVKSPTDIQDSSINR
Second: VSHVFMLLFNVKSPTDIQDSSIKR
The protein stability index of the first is higher: 4.01 for the first, 1.4 for the second.

Going from VSHVFMLLFNVKSPTDIQDSSIWR to VSHVFMLLFNVKSPTDIQDSSIPR, the protein stability index falls from 2.86 to 1.33.

Compared with VSHVFMLLFNVKSPTDIQDSSIAR, VSHVFMLLFNVKSPTDIQDSSIDR is lower in protein stability index: 4.9 for the first, 2.83 for the second.

Compared with VSHVFMLLFNVKSPTDIQDSSIQR, VSHVFMLLFNVKSPTDIQDSSIYR is higher in protein stability index: 2.79 for the first, 3.9 for the second.

Compared with VSHVFMLLFNVKSPTDIQDSSIHR, VSHVFMLLFNVKSPTDIQDSSIMR is higher in protein stability index: 2.28 for the first, 4.19 for the second.

First: VSHVFMLLFNVKSPTDIQDSSITR
Second: VSHVFMLLFNVKSPTDIQDSSIFR
The protein stability index of the first is lower: 2.43 for the first, 4.66 for the second.

First: VSHVFMLLFNVKSPTDIQDSSIER
Second: VSHVFMLLFNVKSPTDIQDSSYIR
The protein stability index of the first is lower: 1.89 for the first, 2.62 for the second.

Compared with VSHVFMLLFNVKSPTDIQDSSWIR, VSHVFMLLFNVKSPTDIQDSSRIR is lower in protein stability index: 2.17 for the first, 1.6 for the second.

Compared with VSHVFMLLFNVKSPTDIQDSSVIR, VSHVFMLLFNVKSPTDIQDSSTIR is lower in protein stability index: 3.37 for the first, 2.35 for the second.

Variants of: B2
Assay: as above
Settings: c terminus: a fixed tail appended

Compared with PSLLCLAWEKLLAAFPNLANLSRT, PSLLGLAWEKLLAAFPNLANLSRT is higher in protein stability index: 1.97 for the first, 2.42 for the second.

Going from PSLLDLAWEKLLAAFPNLANLSRT to PSLLPLAWEKLLAAFPNLANLSRT, the protein stability index falls from 2.88 to 1.34.

Compared with PSLLQLAWEKLLAAFPNLANLSRT, PSLLHLAWEKLLAAFPNLANLSRT is lower in protein stability index: 2.49 for the first, 2.39 for the second.

Going from PSLLALAWEKLLAAFPNLANLSRT to PSLLILAWEKLLAAFPNLANLSRT, the protein stability index falls from 2.28 to 1.8.

Going from PSLLLLAWEKLLAAFPNLANLSRT to PSLLWLAWEKLLAAFPNLANLSRT, the protein stability index falls from 2.19 to 1.93.

First: PSLLSLAWEKLLAAFPNLANLSRT
Second: PSLLNLAWEKLLAAFPNLANLSRT
The protein stability index of the first is higher: 3.15 for the first, 2.72 for the second.

Going from PSLLTLAWEKLLAAFPNLANLSRT to PSLLMLAWEKLLAAFPNLANLSRT, the protein stability index falls from 2.31 to 2.04.

Going from PSLLYLAWEKLLAAFPNLANLSRT to PSLLKLAWEKLLAAFPNLANLSRT, the protein stability index falls from 2.47 to 2.28.

Going from PSLLVLAWEKLLAAFPNLANLSRT to PSLLFLAWEKLLAAFPNLANLSRT, the protein stability index rises from 1.71 to 2.06.

Compared with PSLLRLAWEKLLAAFPNLANLSRT, PSLLELAREKLLAAFPNLANLSRT is higher in protein stability index: 2.29 for the first, 2.52 for the second.

First: PSLLELAPEKLLAAFPNLANLSRT
Second: PSLLELAKEKLLAAFPNLANLSRT
The protein stability index of the first is higher: 3.21 for the first, 2.61 for the second.

First: PSLLELAYEKLLAAFPNLANLSRT
Second: PSLLELACEKLLAAFPNLANLSRT
The protein stability index of the first is higher: 2.04 for the first, 1.85 for the second.

Going from PSLLELAIEKLLAAFPNLANLSRT to PSLLELAMEKLLAAFPNLANLSRT, the protein stability index rises from 1.87 to 1.95.

First: PSLLELATEKLLAAFPNLANLSRT
Second: PSLLELANEKLLAAFPNLANLSRT
The protein stability index of the first is lower: 1.94 for the first, 2.37 for the second.

First: PSLLELAVEKLLAAFPNLANLSRT
Second: PSLLELASEKLLAAFPNLANLSRT
The protein stability index of the first is lower: 2.19 for the first, 2.24 for the second.

First: PSLLELAEEKLLAAFPNLANLSRT
Second: PSLLELADEKLLAAFPNLANLSRT
The protein stability index of the first is higher: 2.97 for the first, 2.37 for the second.

First: PSLLELAAEKLLAAFPNLANLSRT
Second: PSLLELAFEKLLAAFPNLANLSRT
The protein stability index of the first is lower: 1.77 for the first, 2.56 for the second.

Compared with PSLLELAHEKLLAAFPNLANLSRT, PSLLELAQEKLLAAFPNLANLSRT is higher in protein stability index: 2.54 for the first, 2.88 for the second.

First: PSLLELAGEKLLAAFPNLANLSRT
Second: PSLLELALEKLLAAFPNLANLSRT
The protein stability index of the first is higher: 2.78 for the first, 1.58 for the second.

Going from PSLRELAWEKLLAAFPNLANLSRT to PSLMELAWEKLLAAFPNLANLSRT, the protein stability index falls from 3.93 to 2.47.

Going from PSLQELAWEKLLAAFPNLANLSRT to PSLPELAWEKLLAAFPNLANLSRT, the protein stability index falls from 3.05 to 1.83.

First: PSLIELAWEKLLAAFPNLANLSRT
Second: PSLDELAWEKLLAAFPNLANLSRT
The protein stability index of the first is lower: 2.01 for the first, 2.07 for the second.

Going from PSLNELAWEKLLAAFPNLANLSRT to PSLTELAWEKLLAAFPNLANLSRT, the protein stability index rises from 2.83 to 3.05.

First: PSLCELAWEKLLAAFPNLANLSRT
Second: PSLWELAWEKLLAAFPNLANLSRT
The protein stability index of the first is higher: 3.05 for the first, 2.53 for the second.

Going from PSLYELAWEKLLAAFPNLANLSRT to PSLFELAWEKLLAAFPNLANLSRT, the protein stability index rises from 2.06 to 2.75.

First: PSLHELAWEKLLAAFPNLANLSRT
Second: PSLGELAWEKLLAAFPNLANLSRT
The protein stability index of the first is higher: 2.88 for the first, 2.58 for the second.

Going from PSLSELAWEKLLAAFPNLANLSRT to PSLVELAWEKLLAAFPNLANLSRT, the protein stability index falls from 3.52 to 2.26.

Compared with PSLAELAWEKLLAAFPNLANLSRT, PSLKELAWEKLLAAFPNLANLSRT is higher in protein stability index: 3.11 for the first, 3.92 for the second.

First: PSLEELAWEKLLAAFPNLANLSRT
Second: QSLLELAWEKLLAAFPNLANLSRT
The protein stability index of the first is lower: 2.1 for the first, 2.21 for the second.

— the supplement of paper PMC10567573
